# From patent publication US20220332804A1 (CSL INNOVATION, published 2022)
# T1: human C2 D454A (human, UniProt P06681 21-752)
# T1 sequence: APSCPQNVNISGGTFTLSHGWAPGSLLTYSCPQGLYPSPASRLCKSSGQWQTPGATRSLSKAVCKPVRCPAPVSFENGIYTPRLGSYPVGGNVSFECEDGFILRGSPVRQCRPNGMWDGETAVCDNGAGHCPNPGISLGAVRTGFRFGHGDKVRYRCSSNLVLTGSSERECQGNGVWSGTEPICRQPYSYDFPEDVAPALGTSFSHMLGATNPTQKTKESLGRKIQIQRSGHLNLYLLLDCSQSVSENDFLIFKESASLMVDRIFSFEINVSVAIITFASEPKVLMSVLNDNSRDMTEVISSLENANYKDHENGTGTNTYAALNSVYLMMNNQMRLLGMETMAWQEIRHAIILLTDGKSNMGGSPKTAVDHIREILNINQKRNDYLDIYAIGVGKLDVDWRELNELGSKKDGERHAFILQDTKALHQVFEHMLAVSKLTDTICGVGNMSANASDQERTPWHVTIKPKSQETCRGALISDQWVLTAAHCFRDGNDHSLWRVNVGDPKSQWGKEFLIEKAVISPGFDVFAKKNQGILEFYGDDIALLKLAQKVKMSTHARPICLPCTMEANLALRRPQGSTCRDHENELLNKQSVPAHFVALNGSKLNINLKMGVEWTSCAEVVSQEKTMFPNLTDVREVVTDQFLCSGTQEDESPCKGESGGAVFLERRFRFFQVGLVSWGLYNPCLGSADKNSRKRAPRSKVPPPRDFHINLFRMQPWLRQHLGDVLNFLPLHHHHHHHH
# T2: human C2 F689A (human, UniProt P06681 21-752)
# T2 sequence: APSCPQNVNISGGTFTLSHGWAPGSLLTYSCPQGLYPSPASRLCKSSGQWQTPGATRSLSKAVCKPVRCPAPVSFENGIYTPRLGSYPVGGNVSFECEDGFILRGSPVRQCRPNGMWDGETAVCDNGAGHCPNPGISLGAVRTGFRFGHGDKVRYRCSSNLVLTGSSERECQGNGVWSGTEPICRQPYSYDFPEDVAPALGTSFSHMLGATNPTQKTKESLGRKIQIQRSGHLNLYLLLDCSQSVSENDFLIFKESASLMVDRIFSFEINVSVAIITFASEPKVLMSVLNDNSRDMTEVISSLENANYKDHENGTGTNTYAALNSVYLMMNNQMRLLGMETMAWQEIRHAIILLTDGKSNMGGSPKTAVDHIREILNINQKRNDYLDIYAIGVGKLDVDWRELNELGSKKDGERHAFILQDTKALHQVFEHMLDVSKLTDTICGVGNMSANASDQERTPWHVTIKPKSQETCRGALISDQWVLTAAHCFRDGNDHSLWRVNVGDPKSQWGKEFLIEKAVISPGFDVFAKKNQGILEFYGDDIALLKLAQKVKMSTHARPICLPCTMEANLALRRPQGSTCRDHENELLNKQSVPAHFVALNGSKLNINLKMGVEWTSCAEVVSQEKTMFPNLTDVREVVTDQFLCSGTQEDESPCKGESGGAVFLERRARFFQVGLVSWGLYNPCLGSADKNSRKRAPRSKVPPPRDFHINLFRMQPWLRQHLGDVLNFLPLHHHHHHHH
# T3: human C2 N268A (human, UniProt P06681 21-752)
# T3 sequence: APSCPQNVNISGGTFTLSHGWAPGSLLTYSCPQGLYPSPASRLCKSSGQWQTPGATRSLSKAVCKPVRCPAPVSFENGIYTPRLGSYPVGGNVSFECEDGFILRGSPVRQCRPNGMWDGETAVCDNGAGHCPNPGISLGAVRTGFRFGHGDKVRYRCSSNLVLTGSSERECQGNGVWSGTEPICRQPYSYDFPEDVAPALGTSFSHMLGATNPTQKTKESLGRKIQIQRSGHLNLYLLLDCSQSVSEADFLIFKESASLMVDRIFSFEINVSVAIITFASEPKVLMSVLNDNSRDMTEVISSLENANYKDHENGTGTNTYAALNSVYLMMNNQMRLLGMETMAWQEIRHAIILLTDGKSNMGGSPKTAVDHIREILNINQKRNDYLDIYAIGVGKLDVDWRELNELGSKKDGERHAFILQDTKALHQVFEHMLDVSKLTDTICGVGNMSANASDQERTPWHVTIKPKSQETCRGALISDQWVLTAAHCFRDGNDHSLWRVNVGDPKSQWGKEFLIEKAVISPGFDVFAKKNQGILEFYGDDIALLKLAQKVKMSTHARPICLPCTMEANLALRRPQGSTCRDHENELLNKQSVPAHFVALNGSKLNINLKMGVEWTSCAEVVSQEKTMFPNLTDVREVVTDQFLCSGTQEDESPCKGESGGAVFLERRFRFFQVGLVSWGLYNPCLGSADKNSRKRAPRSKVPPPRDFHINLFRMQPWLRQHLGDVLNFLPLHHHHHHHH
# T4: human C2 R493A (human, UniProt P06681 21-752)
# T4 sequence: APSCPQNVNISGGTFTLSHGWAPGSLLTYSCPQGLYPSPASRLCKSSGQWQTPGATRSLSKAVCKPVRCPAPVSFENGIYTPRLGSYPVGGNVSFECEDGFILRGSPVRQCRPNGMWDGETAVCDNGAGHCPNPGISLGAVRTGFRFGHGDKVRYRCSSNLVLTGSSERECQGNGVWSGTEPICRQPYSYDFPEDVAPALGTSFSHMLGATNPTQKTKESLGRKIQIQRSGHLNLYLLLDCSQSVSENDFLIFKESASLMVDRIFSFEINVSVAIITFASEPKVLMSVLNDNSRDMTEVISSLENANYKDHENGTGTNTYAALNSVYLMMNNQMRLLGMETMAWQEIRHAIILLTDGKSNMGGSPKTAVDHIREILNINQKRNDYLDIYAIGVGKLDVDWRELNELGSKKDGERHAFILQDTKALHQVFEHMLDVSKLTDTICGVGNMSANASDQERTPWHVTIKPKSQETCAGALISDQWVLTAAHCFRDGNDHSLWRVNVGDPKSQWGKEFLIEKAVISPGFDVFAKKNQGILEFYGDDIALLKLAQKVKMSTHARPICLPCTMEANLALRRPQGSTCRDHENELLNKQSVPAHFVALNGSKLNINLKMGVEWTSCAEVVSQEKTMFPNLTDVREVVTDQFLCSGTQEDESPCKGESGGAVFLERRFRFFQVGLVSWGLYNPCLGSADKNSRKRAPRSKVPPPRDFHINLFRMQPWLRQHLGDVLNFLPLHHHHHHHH
# Columns and labels:
# Experiment in all cases: SPR, mAb captured, C2 mutant analyte;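 further: Anti-C2 mAbs captured on goat anti-human IgG Biacore CM5 chips, alanine or serine C2 surface mutants flowed over at 37 °C, double-referenced sensorgrams fitted to a 1:1 binding model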
# human C2 D454A = target: T1, human C2 D454A
# human C2 F689A = target: T2, human C2 F689A
# human C2 N268A = target: T3, human C2 N268A
# human C2 R493A = target: T4, human C2 R493A
binder,measurement,setting,value
"RF16-214 (antibody, V domains shown) VH: EVQLLESGGGLVQPGGSLRLSCAASGFTFSWYQMMWVRQAPGKGLEWVSRIYPSGGGTAYADSVKGRFTISRDNSKNTLYLQMNSLRAEDTAVYYCARDAGYGDNWGQGTLVTVSS VL: QSALTQPPSVSVSPGQTASITCSGDKLGEKYASWYQQKAGQSPVMVIYQDRKRPSGIPERFSGSNSGNTATLTISGTQAMDEADYYCQAWDTRAVVFGGGTKLTVLG",Kd,human C2 D454A,111 nM
same,Kd,human C2 F689A,36.5 nM
same,Kd,human C2 N268A,60.8 nM
same,Kd,human C2 R493A,25.3 nM
